Assay results reported in the RNAGym collection of RNA variant scans (doi:10.1073/pnas.2313332121).
Fewer inactive variants are shown than the library holds.

B1: TPR 5TU (parent)
chain: GGAUCUUCUCGAUCUAACAAAAAAGACAAAUCUGCCACAAAGCUUGAGAGCAUCUUCGGAUGCAGAGGCGGCAGCCUUCGGUGGCGCGAUAGCGCCAACGUUCUCAACUAUGACACGCAAAACGCGUGCUCCGUUGAAUGGAGUUUAUCAUG

Variants of: B1
Test: polymerase ribozyme fitness, log enrichment relative to wild type (log ratio); higher = more active; in vitro selection for triplet polymerase activity
In short: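 Input and output libraries were sequenced on Illumina after a single in vitro selection round, run in triplicate on PCR-built, transcribed mutant libraries of each subunit of a heterodimeric triplet polymerase ribozyme. Selection annealed libraries to a biotinylated primer, the partner subunit and triplets, incubated them frozen at −7 °C, then gel-excised extended constructs for streptavidin-bead capture and RT-PCR. Genotypes with ≥10 input reads and ≥1 read per output were kept. Fitness is the logarithm, taken in base 2, of genotype enrichment divided by wild-type enrichment, using inverse-variance-weighted replicate averages.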

Variant | polymerase ribozyme fitness (log ratio)
C51A G59U G84U | ≤ -4.2
G50C U130C | -1.3
G50C C76U C85U C116G | -2.09
G50A G143C | -3.85
G50A C57U C85U G128A | ≤ -4.2
G50C C96A | -3.01
G50U C85A U144A U145C | -1.01
G50U A66C C69U A73C | ≤ -4.2
G50A C76U C93U A98C | -3.32
G50C U104G | ≤ -4.2
C51A C57U G59U G100C A119U A122U U145G | -4.13
G50C G141U | -2.26
G50A U78G | -4.06
G50C C63G G94C C103A C132U | -4.08
G50U U53G C69G G94A | ≤ -4.2
G50C C87U A150C U151A | ≤ -4.2
G50C C57G C95A A115C | ≤ -4.2
C51A C99G | -4.07
C51A G117U | -1.02
G50A U53A A91U G124A C131G A137C | ≤ -4.2
C51A G86C A89U A113U G126A G141U | ≤ -4.2

Variant | polymerase ribozyme fitness (log ratio)
G50A U56G C85U A115C U144G | -2.74
G50A G59U G71U A73C C95A C108G | ≤ -4.2
G50A C95U C125U | -2.44
C51A G67A A73G C95A U101G G140U U151G | ≤ -4.2
G50C C87U | -3.6
C51A U55G G58U C95A | -1.74
C51A A73U C99U C103A U104A G126C U139A | ≤ -4.2
G50C G59A | -3.03
G50C U56A | -2.92
G50A G59A U101G | -0.0298
G50C U90C U104G | ≤ -4.2
G50A C54U A91U C93U A107C C108A C132G A138U U148G | ≤ -4.2
G50A G94U C116G | -1.85
G50A C87U | -1.74
G50U A66U C69G U135C | ≤ -4.2
G50C G81A G86U C87A G136U | ≤ -4.2
G50U U146C | 0.0837
G50A U55A G70A G83C U101A U104A C105G G124U | ≤ -4.2
G50A U53A U56A C75U C116A U134G | ≤ -4.2
G50U U144G U145A | 0.245
G50U U55G C75A A97G A137U U151A | ≤ -4.2

Variant | polymerase ribozyme fitness (log ratio)
G50C C69A C75U | ≤ -4.2
G50U A73U C87U | -2.26
C51A C75U | -2.27
G50U C79G A98U C99G | ≤ -4.2
G50A G83C U146G | -2.55
G50C U104C C116A G143U | ≤ -4.2
G50A C85U C96U C105U G141A | -1.94
G50U U145C | -0.536
C51A A52C A73G G83U U127C | ≤ -4.2
C51A C85U | -1.01
C51A C85A U134C | -2.88
G50U A52G C75A C85A G92C G126U G128A A147U | ≤ -4.2
G50A U53C U56A A91U G94C A142C | ≤ -4.2
G50A C57A C85A A91C A98C A121U G128U U135G A142U G143A | ≤ -4.2
G50C A122C G143A | -4.06
C51A A52C U146G | -2.06
G50C G58A C125A | -3.17
G50C C87U C103G A121G C123U C125G | ≤ -4.2
G50A U56A | -1.5
G50A U56C | -1.2
G50U C57U G84U C103U | -2.21

Variant | polymerase ribozyme fitness (log ratio)
G50C A52C G86U C87A | ≤ -4.2
G50A C96G | -1.55
G50A C96A | -2.68
G50A C96U | -1.47
G50C C75U C93G A115G | ≤ -4.2
G50C G117A | -2.37
C51A C75U C95U A106C G128U | ≤ -4.2
G50A A89U C99U | -2.94
G50U G84A A91U C116A | ≤ -4.2
G50A U53A U55A U56A G67C G92A G126U | ≤ -4.2
G50U C96A C116G U144G | -1.25
G50U A122G | -0.236
G50A A97G A138C | -4.01
G50C A52C U55A G86A | -3.95
G50A C93G G124A C125U G133A U135G A150G | ≤ -4.2
G50U C87U G136U | -2.29
G50C A119U | -3.92
C51A C54U A91U G100U G124A U135C | ≤ -4.2
G50A C76G C93G U102A U135G A150G | ≤ -4.2
G50C C87U C123A C125G | -3.47
